Reference: US20190153106A1 (TRUSTEES OF BOSTON UNIVERSITY, published 2019)
Several values for one entry are separate records, joined by “and”; a condition that tells them apart may be missing. Equal values may be shown once. Read-outs that look alike come from different tables or passages of the source.

T1: antigenic peptide (AP) EMKSRWNWGS (human/monkey/rat DEspR epitope)
T1 construct: also called 6G8G7 antigenic peptide; partial peptide
T1 peptide: EMKSRWNWGS

T2: rat DEspR (rat)
T2 chain: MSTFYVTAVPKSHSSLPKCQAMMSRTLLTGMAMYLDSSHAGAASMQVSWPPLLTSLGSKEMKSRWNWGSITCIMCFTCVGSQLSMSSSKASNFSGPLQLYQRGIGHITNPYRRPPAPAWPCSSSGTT

B1: 6g8^IgG4 humab1 (6g8g7-derived IgG4 humanized monoclonal antibody 1) (antibody)
heavy: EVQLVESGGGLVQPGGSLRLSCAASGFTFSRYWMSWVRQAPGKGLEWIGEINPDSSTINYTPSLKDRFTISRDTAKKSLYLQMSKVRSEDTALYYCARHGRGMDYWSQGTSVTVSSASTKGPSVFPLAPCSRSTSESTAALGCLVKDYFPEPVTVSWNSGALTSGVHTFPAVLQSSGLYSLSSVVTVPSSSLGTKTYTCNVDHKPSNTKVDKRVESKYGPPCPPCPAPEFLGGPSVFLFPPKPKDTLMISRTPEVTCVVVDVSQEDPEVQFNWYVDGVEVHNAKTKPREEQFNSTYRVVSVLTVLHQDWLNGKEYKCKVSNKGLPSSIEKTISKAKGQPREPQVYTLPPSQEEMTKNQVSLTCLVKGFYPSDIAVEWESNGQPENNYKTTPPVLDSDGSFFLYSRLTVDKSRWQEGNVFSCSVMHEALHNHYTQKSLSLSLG
light: DIVLTQSPDILSVSLGERATVNCKASQNVDSNVAWYQQKPGHPPKLLIYSASYRYSRVPDRISGSGSGTDFTLTISNLQAEDVAVYYCQQYHSYPLLAFGAGTKLELKRTVAAPSVFIFPPSDEQLKSGTASVVCLLNNFYPREAKVQWKVDNALQSGNSQESVTEQDSKDSTYSLSSTLTLSKADYEKHKVYACEVTHQGLSSPVTKSFNRGEC
notes: Hinge-stabilized (S228P) human IgG4 / human kappa, transiently expressed in HEK293; AF568-labelled in the FACS assays; also called 6G8IgG4 humanized monoclonal antibody 1 (mAb 1); lead candidate humab
B2: 6g8^IgG1 humab1 (IgG1 6G8G7 humanized monoclonal antibody) (antibody)
heavy: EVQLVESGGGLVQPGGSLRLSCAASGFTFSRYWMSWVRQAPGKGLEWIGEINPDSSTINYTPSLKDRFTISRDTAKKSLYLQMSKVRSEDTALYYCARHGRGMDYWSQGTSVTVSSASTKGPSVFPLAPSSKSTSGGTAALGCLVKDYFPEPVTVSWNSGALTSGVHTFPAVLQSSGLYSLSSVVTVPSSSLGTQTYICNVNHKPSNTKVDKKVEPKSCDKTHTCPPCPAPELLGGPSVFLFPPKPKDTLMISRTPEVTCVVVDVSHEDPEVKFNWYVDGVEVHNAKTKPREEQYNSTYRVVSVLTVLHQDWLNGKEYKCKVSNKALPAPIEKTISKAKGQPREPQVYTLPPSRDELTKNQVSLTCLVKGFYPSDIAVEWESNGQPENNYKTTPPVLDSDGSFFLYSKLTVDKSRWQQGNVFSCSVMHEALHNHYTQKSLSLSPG
light: B1 light
notes: Human IgG1 / human kappa
B3: 7C5B2 mouse anti-human DEspR monoclonal antibody (antibody, V domains shown)
VH: QVQLKESGPGLVAPSQSLSITCTVSGFSLKSYAVSWVRQPPGKGLEWLGVIWGDGSTDYHSALISRLSISKDNSKSQFFLRLNSLQTDDTATYYCARGTGTGFAYWGQGTLVTVSA
VL: DVVMTQTPLSLPVSLGDQASISCRSSQSLVHSNGNTYLHWYLQKPGQSPKLLIYKVSNRFSGVPDRFSGSGSGTDFTLKISRVEAEDLGIYFCSQCTHIPWTFGGGTNLEIK
notes: Mouse hybridoma antibody raised against the 9-aa N-terminal peptide of human DEspR; IgG2b was used as its isotype control; AF568-labelled in the FACS and internalization assays; also called 7C5-murine monoclonal antibody; HV2KV2
B4: 6G8G7 murine anti-DEspR monoclonal antibody (antibody, V domains shown)
VH: EVQLQESGGGLVQPGGSLKLSCAASGFDFSRYWMSWVRQAPGKGLEWIGEINPDSSTINYTPSLKDKFIISRDTAKKTLYLQMSKVRSEDTALYYCARHGRGMDYWSQGTSVTVSS
VL: DIVLTQTNQIMSASVGDRVSVTCKASQNVDSNVAWYQQKPGHSPKALIYSASYRYSRVPDRITGSGSGTDFTLTITNVQSKDLADYFCQQYHSYPLLAFGAGTKLELKR
notes: Mouse hybridoma antibody, detected with anti-mouse IgG2b; also called 6g8 mumab; 6g8-mumab
B5: human DEspR (dual endothelin-1/VEGF signal peptide receptor) (receptor)
chain: MTMFKGSNEMKSRWNWGSITCIICFTCVGSQLSMSSSKASNFSGPLQLYQRELEIFIVLTDVPNYRLIKENSHLHTTIVDQGRTV
modifications: glycosylated (~17 kDa band, PNGase-sensitive)
notes: On intact Panc1 cells / Panc1 CSCs in the FACS assays and on HUVECs in the angiogenesis assays; In pulldowns and Western blots it came from membrane proteins of U87 CSCs and hDEspR-Cos1 permanent transfectants; also called hDEspR; DEAR

Experiments:
[1] = target: T1, antigenic peptide (AP) EMKSRWNWGS; test: ELISA on antigenic peptide EMKSRWNWGS
Experimental: Next, the EC50 of binding to the antigenic peptide was determined by ELISA, as shown in FIGS. 35A-35B, comparing two IgG4 6g8g7 humanized antibody candidates (including humab1 comprising SEQ ID NOs: 63 and 65 and humab2 comprising SEQ ID NO: 65 with substitutions in SEQ ID NO: 26 at Kabat residues 83V and 85Y to give 83D and 85Y), and the IgG1 6G8G7humanized monoclonal antibody (comprising SEQ ID NOs: 61 and 65), and 6G8G7 murine monoclonal antibody (“6g8 mumab”).
(§1) Neutrophils (50000/well) were incubated in the absence or presence of mAbs at 37° C. × 4 hrs and live cells counted by using Trypan blue. HUVEC-dependent angiogenesis (20,000 cells/well) was performed as described in the presence or absence of mAbs. Number of polygons and number of branch points were determined after 14 hrs of incubation at 37° C. ND, not done, indeterminate, value greater than upper limit of max dose used in these experiments.

[2] = target: B5; test: cell-based or functional assay
[3] = target: B5; test: FACS, AF568-labelled mAb on intact DEspR+ human cells (Panc1), 4°C
Experimental: Binding was determined by FACS analysis.
as §1

[4] = target: T2, rat DEspR; test: cell-based or functional assay
[5] = target: B5; test: FACS saturation binding of AF568-labelled mAb to Panc1 CSCs, 4 °C, 20 min
Experimental: (§2) Saturation binding curves of monoclonal antibody (mAb) binding to DEspR on Panc1 CSCs. […] Specific binding was determined by FACS analysis using 100,000 cells in 0.25 ml containing increasing concentrations of mAbs. Incubations were done at 4° C. for 20 min and immediately subjected to FACS analysis on a BDTM LSRII Flow cytometer. Each data point was performed in duplicate.

[6] = target: B5; test: saturation binding by FACS, AF568-labelled mAb on DEspR+ Panc1 cells
Experimental: as §2
Fully human VH5/VK1 has a slightly better Kd than VH3/VK2 fully human composite antibodies. […] (FIG. 16).

[7] = target: B5; test: cell-based or functional assay; remark: listed apart in the source
[8] = target: T1, antigenic peptide (AP) EMKSRWNWGS; test: ELISA on antigenic peptide EMKSRWNWGS
[9] = target: B5; test: FACS displacement of AF568-7C5B2 (10 µg/ml) from Panc1 CSCs; peptide at 100x molar excess
Experimental: 50,000 cells were reacted with 10 µg/ml AF568-labelled 7C5B2 monoclonal antibody (mAb) at 4° C. for 20 min in the absence or presence of the different peptides at 100× molar excess. Samples were immediately subjected to FACS analysis for quantification of DEspR+ cells. Samples were run in duplicates. AngII, angiotensinII; ET1, endothelin-1 (DEspR ligand); sp17, VEGFsp17 (DEspR ligand); sp26, VEGFsp26 (DEspR ligand). Data presented as Mean±SD.

[10] = target: T3, galectin-1 (human, UniProt P09382 2-135); test: Western blot of the DEspR complex
T3 construct: also called gal1; recombinant galectin-1 protein
T3 sequence (P09382 2-135 limits assumed): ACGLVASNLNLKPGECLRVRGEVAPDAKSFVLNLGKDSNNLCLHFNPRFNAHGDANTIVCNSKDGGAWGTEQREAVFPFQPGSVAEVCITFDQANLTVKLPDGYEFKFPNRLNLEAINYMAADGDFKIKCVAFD

Row | Bmax (A450) [1] | EC50 [1] | Human Angiogenesis assay (HUVECs): branch points, IC50 [2] | Human Angiogenesis assay (HUVECs): polygons, IC50 [2] | Bmax (% + cells) [3] | EC50 [3] | Binder | Rat Neutrophil survival, IC50 [4] | further results
1 | 2.62 A450 | 11.7 µg/mL | 4.3 µg/mL | 2.6 µg/mL | 31.5 % + cells | ~4.3 nM and 0.64 µg/mL | B1 | 1.16 µg/mL | 
2 | 3.09 A450 | 13.4 µg/mL | 10.4 µg/mL | 9.1 µg/mL | 21.6 % + cells | 1.3 µg/mL and 42.9 nM | B2 | 6.98 µg/mL | 
3 |  |  |  |  |  |  | B3 |  | Kd [5]: 5.2 µg/mL; Kd [6]: ~5.2 µg/mL
4 |  |  |  |  |  |  | MNFLLSWVHWSLALLLYLHHAKWSQA (ligand) [VEGFsp26 (VEGF signal peptide 26)] |  | inhibition of HUVEC angiogenesis, IC50 based on total tube length [7]: 1.9 nM
5 | 6.36 A450 | 2.96 µg/mL | > 30 µg/mL | > 30 µg/mL | 35.6 % + cells | 5.39 µg/mL and 178 nM | B4 | > 30 µg/mL | Kd [5]: 5.2 µg/mL; Kd [6]: ~5.2 µg/mL; EC50 [8]: 4.96 µg/mL
6 |  |  |  |  |  |  | CSCSSLMDKECVYFCHLDIIW (ligand, UniProt P05305 53-73, looked up, also called ET1; ET-1) [endothelin-1] |  | binding result [9]: binds
7 |  |  |  |  |  |  | B5 |  | binding result [10]: binds
8 |  |  |  |  |  |  | MNFLLSWVHWSLALLLY (ligand) [VEGFsp17 (VEGF signal peptide 17)] |  | stimulation of HUVEC angiogenesis, EC50 based on total tube length [7]: 1.98 nM
